The target of test [1] is T1, ALCAM (Activated leukocyte cell adhesion molecule) (Homo sapiens (Human), UniProt Q13740 28-583).
T1 construct: Native protein on cancer cell lines; also called CD166 antigen; CD166
T1 sequence: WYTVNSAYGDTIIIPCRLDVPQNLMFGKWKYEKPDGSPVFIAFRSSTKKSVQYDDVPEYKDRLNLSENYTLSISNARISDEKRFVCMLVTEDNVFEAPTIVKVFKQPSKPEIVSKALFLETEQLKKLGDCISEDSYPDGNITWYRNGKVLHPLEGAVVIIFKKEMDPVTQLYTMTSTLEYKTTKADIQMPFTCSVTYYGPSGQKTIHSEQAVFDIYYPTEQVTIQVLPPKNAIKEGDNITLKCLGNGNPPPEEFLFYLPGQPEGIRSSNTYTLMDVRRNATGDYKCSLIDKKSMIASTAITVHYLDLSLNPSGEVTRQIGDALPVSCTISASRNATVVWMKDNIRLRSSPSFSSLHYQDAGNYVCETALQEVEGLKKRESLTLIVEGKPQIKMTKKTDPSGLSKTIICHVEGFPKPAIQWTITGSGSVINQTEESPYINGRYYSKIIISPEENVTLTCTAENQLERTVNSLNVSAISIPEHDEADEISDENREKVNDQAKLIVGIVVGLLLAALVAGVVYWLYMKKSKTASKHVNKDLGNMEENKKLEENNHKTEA
Briefly: antigen assigned by the filing's classifying and identification method; details for this clone not given.

Test [2] concerns the target T2, HGFR (Hepatocyte growth factor receptor) (Homo sapiens (Human), UniProt P08581 25-1390).
T2 construct: also called Met
The description is as above.

The target of test [3] is T1, ALCAM (Activated leukocyte cell …). The test is described as follows: flow cytometry histograms on various cell lines, antigen identified later.
Test [4] has as its target T3, LAR (Leukocyte common Antigen-Related) (Homo sapiens (Human), UniProt P10586 30-1907, limits assumed).
T3 construct: also called PTP-LAR; protein tyrosine phosphatase receptor type F (PTPRF)
Briefly: antigen assigned by the filing's classifying and identification method; details for this clone not given.

A further test has as its target CD44 (Homo sapiens (Human), UniProt P16070 24-742). The description is as above.
Test [5] deals with T1, ALCAM (Activated leukocyte cell …). Briefly: immunoprecipitation from biotin-labelled cell lysate with pp type antibody, mass spectrometry.
For another test, the target named is T4, CD73 (Homo sapiens (Human), UniProt P21589 27-549, limits assumed).
T4 construct: also called 5-prime-ribonucleotide phosphohydrolase
T4 sequence: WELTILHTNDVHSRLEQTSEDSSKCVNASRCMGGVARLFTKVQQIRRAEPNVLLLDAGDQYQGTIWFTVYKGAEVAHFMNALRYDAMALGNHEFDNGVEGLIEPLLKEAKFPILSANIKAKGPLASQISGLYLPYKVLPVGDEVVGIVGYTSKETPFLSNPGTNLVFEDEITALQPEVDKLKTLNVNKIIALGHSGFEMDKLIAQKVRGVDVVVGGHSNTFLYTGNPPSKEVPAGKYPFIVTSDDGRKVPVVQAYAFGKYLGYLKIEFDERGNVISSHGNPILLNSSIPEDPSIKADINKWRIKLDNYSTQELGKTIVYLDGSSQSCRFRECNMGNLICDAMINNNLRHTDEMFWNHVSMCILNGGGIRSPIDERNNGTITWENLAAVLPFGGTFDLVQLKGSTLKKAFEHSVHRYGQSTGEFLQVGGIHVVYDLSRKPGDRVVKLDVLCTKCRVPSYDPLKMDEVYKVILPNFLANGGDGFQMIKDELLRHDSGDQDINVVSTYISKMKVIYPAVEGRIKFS
The test is described as follows: antigen assigned by the filing's classifying and identification method; details for this clone not given.

Substitutions are numbered along the chain they refer to.

T2 sequence (P08581 25-1390 L1272V limits assumed): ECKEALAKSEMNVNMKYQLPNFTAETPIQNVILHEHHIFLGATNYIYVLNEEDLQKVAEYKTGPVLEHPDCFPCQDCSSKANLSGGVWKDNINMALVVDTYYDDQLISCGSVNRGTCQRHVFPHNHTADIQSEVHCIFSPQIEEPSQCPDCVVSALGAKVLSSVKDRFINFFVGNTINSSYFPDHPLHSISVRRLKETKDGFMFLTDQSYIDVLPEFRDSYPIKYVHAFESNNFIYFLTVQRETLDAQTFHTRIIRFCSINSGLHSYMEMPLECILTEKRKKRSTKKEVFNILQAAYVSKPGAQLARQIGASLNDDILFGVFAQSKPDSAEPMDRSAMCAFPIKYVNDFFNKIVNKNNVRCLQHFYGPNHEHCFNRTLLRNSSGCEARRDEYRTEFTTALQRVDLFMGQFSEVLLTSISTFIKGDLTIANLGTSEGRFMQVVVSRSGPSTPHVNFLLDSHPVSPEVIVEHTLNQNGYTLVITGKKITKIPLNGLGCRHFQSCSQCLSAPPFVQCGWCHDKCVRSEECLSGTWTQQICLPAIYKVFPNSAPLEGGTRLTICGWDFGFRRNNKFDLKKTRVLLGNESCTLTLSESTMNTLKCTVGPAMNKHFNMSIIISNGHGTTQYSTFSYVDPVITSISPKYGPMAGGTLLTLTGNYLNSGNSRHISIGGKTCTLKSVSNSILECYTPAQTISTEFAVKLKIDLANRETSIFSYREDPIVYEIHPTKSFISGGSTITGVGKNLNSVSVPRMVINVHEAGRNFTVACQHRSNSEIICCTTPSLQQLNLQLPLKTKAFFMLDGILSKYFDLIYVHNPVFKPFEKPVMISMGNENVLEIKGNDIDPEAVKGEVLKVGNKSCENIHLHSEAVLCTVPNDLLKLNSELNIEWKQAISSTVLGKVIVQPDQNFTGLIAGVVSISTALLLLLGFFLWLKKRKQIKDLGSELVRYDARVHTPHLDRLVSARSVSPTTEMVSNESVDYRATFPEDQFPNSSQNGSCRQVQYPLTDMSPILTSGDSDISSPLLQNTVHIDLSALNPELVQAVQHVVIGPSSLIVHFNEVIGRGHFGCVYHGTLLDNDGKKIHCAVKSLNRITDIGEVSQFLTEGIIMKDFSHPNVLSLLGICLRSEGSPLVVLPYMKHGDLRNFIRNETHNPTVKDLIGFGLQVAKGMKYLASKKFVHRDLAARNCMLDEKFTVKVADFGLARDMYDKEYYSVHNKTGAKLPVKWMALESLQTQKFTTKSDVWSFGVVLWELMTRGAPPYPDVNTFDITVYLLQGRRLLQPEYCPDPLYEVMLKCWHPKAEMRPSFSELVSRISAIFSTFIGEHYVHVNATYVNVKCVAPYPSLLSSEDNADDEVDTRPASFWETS
CD44, sequence (P16070 24-742): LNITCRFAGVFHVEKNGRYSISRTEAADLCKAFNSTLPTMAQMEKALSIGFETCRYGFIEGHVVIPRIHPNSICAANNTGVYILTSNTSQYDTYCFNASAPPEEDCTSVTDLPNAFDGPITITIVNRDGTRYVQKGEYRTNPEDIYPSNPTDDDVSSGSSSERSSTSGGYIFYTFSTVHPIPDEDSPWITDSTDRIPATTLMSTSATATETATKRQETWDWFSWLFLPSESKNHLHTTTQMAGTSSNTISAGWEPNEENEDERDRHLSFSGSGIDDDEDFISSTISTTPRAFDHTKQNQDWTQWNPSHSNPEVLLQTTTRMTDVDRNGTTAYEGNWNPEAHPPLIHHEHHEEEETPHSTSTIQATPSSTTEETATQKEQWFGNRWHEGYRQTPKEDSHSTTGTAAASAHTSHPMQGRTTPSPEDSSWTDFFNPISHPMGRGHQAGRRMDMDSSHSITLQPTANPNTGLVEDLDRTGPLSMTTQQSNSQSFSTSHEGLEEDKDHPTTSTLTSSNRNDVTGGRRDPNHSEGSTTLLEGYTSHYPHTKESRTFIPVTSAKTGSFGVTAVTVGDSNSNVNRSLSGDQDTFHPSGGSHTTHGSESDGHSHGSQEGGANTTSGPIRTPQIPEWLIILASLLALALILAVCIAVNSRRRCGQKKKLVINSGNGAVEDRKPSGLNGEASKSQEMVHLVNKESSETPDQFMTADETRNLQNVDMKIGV

B1: 083-131 antibody (antibody, V domains shown)
VH: EVQLVESGGGVVQPGRSLRLSCAASGFTFDDYAMHWVRQAPGKGLEWVSGISWNSGSIGYADSVKGRFTISRDNAKNSLYLQMNSLRAEDTAVYYCATEEWWRFDLWGRGTLVTVSR
VL: QSALTQPPSASGSPGQSVTISCTGTSSDVDDYNYVSWYQQHPGKAPKLMIYEVTKRPSGVPDRFSGSKSGNTASLTISGLQAEDEADYYCSSYVGSDNRVFGTGTKVTVPG
notes: Clone of the scFv-CL-cp3 phage library
As for B1, the binding result in test [1] is “binds”.

B2: 029-067 antibody (antibody, V domains shown)
VH: QVQLQQSGAEVKKPGASVKVSCKASGYTFTTYYMHWVRQAPGQGLEWMGIINPSGENTNYAQKFQGRVTMTRDTSTTTVYMELSSLRSEDTAVYYCARSFIGTRGGGLDVWGQGTTVTVSR
VL: QSVLTQPPSVSGAPGQRVNISCAGSSSNIGAGYDVHWYQQIPGTAPKLLMYGNSNRPSGVPDRFSGSKSGASASLAITRLQAEDEADYYCQSYDSSLSGSRVFGTGTKVTVLG
notes: as for B1
In the case of B2, the binding result in test [1] is recorded as “binds”.

B3: 067-126 antibody (antibody, V domains shown)
VH: QVQLQESGPGLVKPSGTLSLTCAVSGGSISSSNWWSWVRQPPGKGLEWIGEIYHSGSTNYNPSLKSRVTISVDKSKNQFSLKLSSVTAADTAVYYCARGGSYYFDYWGQGTLVTVSR
VL: QSALTQPASVSGSPGQSITISCTGTISDVGGYDFVSWYQHHPGKAPKLLIYDVNNRPSGVSHRFSGSKSGNTASLTISGLQAEDEATYYCSSYSNRHSLIVFGSGTQVVGLG
notes: as for B1
Take B3: the binding result in test [2] is on record as “binds”.

B4: 067-133 antibody (antibody, V domains shown)
VH: QVQLQQWGAGLLKPSETLSLTCAVYGGSFSGYYWSWIRQPPGKGLEWIGEINHSGSTNYNPSLKSRVTISVDTSKNQFSLKLSSVTAADTAVYYCARGGGVEALNYGMDVWGQGTTVTVSR
VL: B3 VL with S17T
notes: as for B1
B4: the binding result in test [2] was “binds”.

B5: 067-287 antibody (antibody, V domains shown)
VH: QVQLQQWGAGLLKPSETLSLTCTVHGGSFDDYYWTWIRQPPGGGLEWIGEMNSGRTYNYNPFLESRASIDVDTFKKQFSLALRSVTAADTAVYYCARGAYVNYYYIDVWGDGTTVTVSR
VL: B3 VL with S17T
notes: as for B1
Regarding B5, in test [2], the binding result was “binds”.

B6: 040-107 antibody (antibody, V domains shown)
VH: EVQLVESGGGVVQPGGSLRLSCAASGFNFDVYGMNWVRQVPGKGLEWVSLINGDGGLRYYADSVKGRFTVSRDNSRNSLYLQMNSLRSEDTALYYCVKGNFQQWGQGTLVTVSR
VL: SYVLTQPPSVSVAPGKTARITCGGNNIGSKSVHWYQQKPGQAPVLVIYYDSDRPSGIPERFSGSNSGNTATLTISRVEAGDEADYYCQVWDSSSDHVVFGGGTKLTVLG
notes: Clone of the scFv-CL-cp3 phage library; pp type (protein A fusion) used for immunoprecipitation
For B6, in test [3], the binding result was “binds”.

B7: 065-358 antibody (antibody, V domains shown)
VH: EVQLVESGGGLVQPGGSLRLSCAASGFTFSSYSMNWVRQAPGKGLEWVSYISSSSSTIYYADSVKGRFTISRDNAKNSLYLQMNSLRDEDTAVYYCARDNLEGLDYWGQGTLVTVSR
VL: B6 VL
notes: as for B1
As for B7, the binding result in test [4] is “binds”.

B8: 064-003 antibody (antibody, V domains shown)
VH: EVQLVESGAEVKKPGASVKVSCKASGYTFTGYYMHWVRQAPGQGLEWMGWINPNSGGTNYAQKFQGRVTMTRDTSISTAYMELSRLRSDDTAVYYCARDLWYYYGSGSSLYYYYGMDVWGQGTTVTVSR
VL: QSVLTQPPSVSGAPGQRVTISCTGSSSNIGAGYDVHWYQQLPGTAPKLLIYGNSNRPSGVPDRFSGSKSGTSASLAITGLQAEDEADYYCQSYDSSLSGVVFGGGTKLTVLG
notes: as for B1
As for B8, the binding result with CD44 is “binds”.

B9: 065-030 antibody (antibody, V domains shown)
VH: QVQLQQWGAGLLKPSETLSLTCAAYGGSFSGYYWSWIRQPPGKGLEWIGEINHSGSTNYNPSLKSRVTISVDTSKNQFSLKLSSVTAADTAVYYCARTYYGSGSYQYNWFDPWGQGTLVTVSR
VL: B8 VL
notes: as for B1
Take B9: in test [4], the binding result is “binds”.

B10: 066-019 antibody (antibody, V domains shown)
VH: QVQLQESGPGLVKPSQTLSLTCTVSGGSISSGDYYWSWIRQPPGKGLEWIGYIYYSGSTYYNPSLKSRVTISVDTSKNQFSLKLSSVTAADTAVYYCARGTGDLEWFDPWGQGTLVTVSR
VL: QSVLTQPPSVSGAPRQTVTISCSGSSSNIGQNSVTWYQRLPGEAPKLLIYYDDLLHSGVSDRFSGSKSGTSASLAISGLQSEDEAEYYCASWDDSLKGPVFGGGTKLTVLG
notes: as for B1
Turning to B10, the binding result in test [4] is “binds”.

B11: 064-044 antibody (antibody, V domains shown)
VH: QVQLVQSGAEVKKPGASVKVSCKVSGYTLTELSMHWVRQAPGKGLEWMGGFDPEDGETIYAQKFQGRVTMTEDTSTDTAYMELSSLRSEDTAVYYCATDLDYYGSGSYAFDIWGQGTTVTVSR
VL: QSALTQPASVSGSPGQSITISCTGTSSDVGSYNLVSWYQQHPGKAPKLMIYEGSKRPSGVSNRFSGSKSGNTASLTISGLQAEDEADYYCSSYTSSSTWVFGGGTKLTVLG
notes: as for B1
Turning to B11, the binding result in test [4] is reported as “binds”.

B12: 035-234 antibody (antibody, V domains shown)
VH: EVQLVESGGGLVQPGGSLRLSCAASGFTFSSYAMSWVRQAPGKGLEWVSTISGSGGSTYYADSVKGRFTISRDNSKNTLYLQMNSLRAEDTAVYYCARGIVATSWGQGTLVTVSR
VL: SYELTQPPSVSVAPGQTARITCGGNKIGSKSVHWYQQKQGQAPVLVIYLDRDRPSGIPERFSGSNSGNTATLTITRVEAEDEADYYCHLWDSGSDQVFGGGTKLTVLG
notes: as for B6
For B12, in test [3], the binding result was “binds”.

B13: 079-085 antibody (antibody, V domains shown)
VH: EVQLVESGGGLVQPGGSLRLSCAASGFTFSSYSMNWVRQAPGKGLEWVSYISSSSSTIYYADSVKGRFTISRDNAKNSLYLQMNSLRDEDTAVYYCAREGPRGSYYYFDYWGQGTLVTVSR
VL: NFMLTQPHSVSESPGKTVTISCTRSSGSIASNYVQWYQQRPGSAPTTVIYEDNQRPSGVPDRFSGSIDSSSNSASLTISGLKTEDEADYYCQSYDSSNWVFGGGTKLTVLG
notes: as for B1
For B13, in test [4], the binding result is on record as “binds”.

B14: 041-118 antibody (antibody, V domains shown)
VH: EVQLVESGGGLVQPGGSLRLSCAASGFTFDDYAMHWVRQAPGKGLEWVSLISGDGGSTYYADSVKDRFTISRDNSKNSLYLQMNSLRAEDTAVYYCARGNYFDYWGQGTLVTVSR
VL: SYELTQPLSVSVALGQTARITCGGNNIGSKNVHWYQQKPGQAPVLVIYRDSNRPSGIPERFSGSNSGNTATLTISRAQAGDEADYYCQVWDSSVVFGGGTKLTVLG
notes: as for B6
In the case of B14, the binding result in test [5] is reported as “binds”.

B15: 067-213 antibody (antibody, V domains shown)
VH: EVQLVESGGGLVQPGRSLRLSCAASGFTFDDYAMHWVRQAPGKGLEWVSGISWNSGSIGYADSVKGRFTISRDNAKNSLYLQMNSLRAEDTALYYCVRSGSYNYYYYGMDVWGQGTTVTVSR
VL: not shown
notes: as for B1
With B15, in the test with CD73, the binding result is recorded as “binds”.

The values are drawn from patent publication US20090203538A1 (INSTITUTE FOR ANTIBODIES, published 2009).
